Data on two molecules can be found in patent US20150297672A1, “Alpha- and gamma-MSH analogues” (TXP Pharma GmbH, priority 2014, published 2015).

This assay concerns the target human melanocortin receptor type 1 (MC1r) (human) (UniProt Q01726). The experiment in a line: cell-based or functional assay.

Chain of human melanocortin receptor type 1 (MC1r) (human) (Q01726 whole entry): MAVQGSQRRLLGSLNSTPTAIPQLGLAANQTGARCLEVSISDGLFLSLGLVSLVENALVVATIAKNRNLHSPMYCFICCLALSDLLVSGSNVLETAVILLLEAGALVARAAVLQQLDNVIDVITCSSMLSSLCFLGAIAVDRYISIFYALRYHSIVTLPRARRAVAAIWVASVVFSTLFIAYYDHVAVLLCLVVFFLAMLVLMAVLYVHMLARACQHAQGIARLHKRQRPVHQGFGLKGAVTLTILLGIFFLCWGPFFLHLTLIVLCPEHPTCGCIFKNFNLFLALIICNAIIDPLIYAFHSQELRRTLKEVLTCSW

Ac-KKKKKKSYSMEHFRWGKPV-NH2: the EC50, cAMP production turned out to be 2.12 nM; the Emax (max efficacy expressed as percent of αMSH), cAMP production was 72 % of αMSH; the maximal efficacy (Emax), cAMP production amounted to 3 nM.

B1: Ac(Lys)6-NDP-αMSH (Ac(Lys)6-Ser-Tyr-Ser-Nle Glu-His-(D-Phe)-Arg-Trp-Gly-Lys-Pro-Val-NH2) (peptide)
peptide: KKKKKKSYSXEHFRWGKPV
modifications: N-terminal acetyl; Nle (norleucine) at position 10 (written X); D-Phe at position 13; C-terminal amide
Consider B1, for which the EC50, cAMP production worked out at 1.35 nM and the Emax (max efficacy expressed as percent of αMSH), cAMP production is 62 % of αMSH.
